Biological target: PP2A:B55 holoenzyme (PP2Aa, B55, PP2Ac) (UniProt P30153)
Sequence (P30153 9-589, chain 1 of 3): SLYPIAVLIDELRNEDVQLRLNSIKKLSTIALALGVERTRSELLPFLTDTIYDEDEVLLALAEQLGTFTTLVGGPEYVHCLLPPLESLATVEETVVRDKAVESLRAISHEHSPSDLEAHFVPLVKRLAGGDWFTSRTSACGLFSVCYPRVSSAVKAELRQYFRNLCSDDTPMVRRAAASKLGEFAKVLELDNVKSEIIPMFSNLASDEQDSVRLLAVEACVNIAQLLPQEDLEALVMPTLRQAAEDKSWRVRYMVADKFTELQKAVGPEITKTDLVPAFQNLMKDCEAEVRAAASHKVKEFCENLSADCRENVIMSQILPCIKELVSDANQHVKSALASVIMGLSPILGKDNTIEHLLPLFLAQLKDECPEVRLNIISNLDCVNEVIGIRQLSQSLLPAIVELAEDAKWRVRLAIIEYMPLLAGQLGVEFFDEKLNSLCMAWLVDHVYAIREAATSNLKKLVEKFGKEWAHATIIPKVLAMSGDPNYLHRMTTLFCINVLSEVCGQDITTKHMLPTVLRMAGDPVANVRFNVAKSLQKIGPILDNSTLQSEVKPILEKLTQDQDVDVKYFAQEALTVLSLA
Sequence (P63151 whole entry, chain 2 of 3, further chain): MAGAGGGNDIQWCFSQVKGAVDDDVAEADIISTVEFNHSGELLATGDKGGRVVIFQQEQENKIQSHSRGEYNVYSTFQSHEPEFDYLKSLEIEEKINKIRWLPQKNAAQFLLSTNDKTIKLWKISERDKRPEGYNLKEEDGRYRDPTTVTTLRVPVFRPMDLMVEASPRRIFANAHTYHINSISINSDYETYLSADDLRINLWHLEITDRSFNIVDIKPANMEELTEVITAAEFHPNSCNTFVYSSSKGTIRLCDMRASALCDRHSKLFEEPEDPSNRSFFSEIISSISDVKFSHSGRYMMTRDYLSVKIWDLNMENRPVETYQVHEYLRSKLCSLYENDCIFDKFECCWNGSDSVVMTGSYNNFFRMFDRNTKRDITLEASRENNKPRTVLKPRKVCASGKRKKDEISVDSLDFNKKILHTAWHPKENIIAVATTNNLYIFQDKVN
Sequence (P67775 whole entry, chain 3 of 3, further chain): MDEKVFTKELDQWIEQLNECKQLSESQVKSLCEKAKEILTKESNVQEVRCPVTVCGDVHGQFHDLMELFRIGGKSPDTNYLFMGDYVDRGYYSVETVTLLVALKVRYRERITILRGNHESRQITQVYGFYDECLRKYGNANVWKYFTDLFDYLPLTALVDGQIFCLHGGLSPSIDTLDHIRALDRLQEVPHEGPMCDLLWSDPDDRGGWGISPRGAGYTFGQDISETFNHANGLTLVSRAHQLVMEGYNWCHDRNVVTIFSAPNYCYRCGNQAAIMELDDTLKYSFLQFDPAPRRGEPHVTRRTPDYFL

Row | inhibition of PP2A:B55 phosphatase activity (DiFMUP), against wild type [fold] | Substance
1 | 11 | FAM122AID R105L (domain or fragment)
2 | 2 | FAM122AID E104A/S120C (domain or fragment)
3 | 6 | FAM122AID V107G (domain or fragment)
